Laboratory results published in publication PMC3338774, “Crystal Structure of ChrR—A Quinone Reductase with the Capacity to Reduce Chromate” (PLoS ONE, 2012).

T1: ChrR (Escherichia coli, UniProt P0AGE6)
T1 construct: full-length recombinant from E. coli BL21 (DE3), pET28a (His) or pTYB3 (intein), tags removed by thrombin or DTT; untagged WT crystallized; tetramer; residues 4-184 (chain A) and 4-185 (chain B) seen in crystal
T1 sequence (P0AGE6 1-188): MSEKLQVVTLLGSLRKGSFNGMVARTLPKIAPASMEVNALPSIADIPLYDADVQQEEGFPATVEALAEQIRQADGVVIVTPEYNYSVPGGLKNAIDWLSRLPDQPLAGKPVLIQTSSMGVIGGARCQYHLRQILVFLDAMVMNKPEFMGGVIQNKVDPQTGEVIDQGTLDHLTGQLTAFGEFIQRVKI


What was measured:
ChrR = target: T1, ChrR; assay: X-ray crystallography, […] Å; type: binding; conditions: bound at active site, non-covalent; crystals at PEG8000, NaCl, calcium acetate
[1] = target: the molecule itself; assay: crystal structure; untagged wild type ChrR at 26 mg/mL, sitting drop vapor diffusion, PEG8000, sodium chloride, calcium acetate; 2.2 Å, space group P6(3)22; two molecules (a homo-dimer) in the asymmetric unit, tetramer formed by two symmetry related dimers
[2] = target: the molecule itself; assay: SEC; analytic Superdex 200 10/300 column, 0.5 mL per min; proteins pre-incubated with FMN (1 mM, 2 h); various protein concentrations, including those used for measuring the enzyme activity

Row | Molecule | stoichiometry N [2] | other results
1 | Cc1cc2nc3c(=O)[nH]c(=O)nc-3n(C[C@H](O)[C@H](O)[C@H](O)COP(=O)(O)O)c2cc1C [FMN, flavin mononucleotide] | – | X-ray crystallography, 2.2 Å (ChrR): FMN is anchored by several hydrogen bonds to a typical strand-loop-helix nucleotide-binding motif
2 | Escherichia coli ChrR enzyme, wild type (enzyme, ChrR, quinone reductase with chromate reductase activity, Escherichia coli; the crystal structure models residues 4-184 (chain A) and 4-185 (chain B); The crystallised protein is called untagged; also called ChrR WT; native ChrR; source: E. coli BL21 (DE3), purified (His-Trap nickel or chitin bead column, tag removed, gel filtration on Superdex 200)) EKLQVVTLLGSLRKGSFNGMVARTLPKIAPASMEVNALPSIADIPLYDADVQQEEGFPATVEALAEQIRQADGVVIVTPEYNYSVPGGLKNAIDWLSRLPDQPLAGKPVLIQTSSMGVIGGARCQYHLRQILVFLDAMVMNKPEFMGGVIQNKVDPQTGEVIDQGTLDHLTGQLTAFGEFIQRVKI | – | stoichiometry N [1]: 4
3 | ChrR43 (Arg125Met) (enzyme, Escherichia coli, ChrR, Escherichia coli, with Arg125Met; PDB 3SVL is the wild-type parent; source: E. coli BL21 (DE3), pET28a, purified (His-Trap nickel column, tag removed, gel filtration)) EKLQVVTLLGSLRKGSFNGMVARTLPKIAPASMEVNALPSIADIPLYDADVQQEEGFPATVEALAEQIRQADGVVIVTPEYNYSVPGGLKNAIDWLSRLPDQPLAGKPVLIQTSSMGVIGGAMCQYHLRQILVFLDAMVMNKPEFMGGVIQNKVDPQTGEVIDQGTLDHLTGQLTAFGEFIQRVKI | 4 | –
4 | ChrR42 (Tyr85Asn) (enzyme, Escherichia coli, ChrR, Escherichia coli, with Tyr85Asn; PDB 3SVL is the wild-type parent; source: E. coli BL21 (DE3), pET28a, purified (His-Trap nickel column, tag removed, gel filtration)) EKLQVVTLLGSLRKGSFNGMVARTLPKIAPASMEVNALPSIADIPLYDADVQQEEGFPATVEALAEQIRQADGVVIVTPEYNNSVPGGLKNAIDWLSRLPDQPLAGKPVLIQTSSMGVIGGARCQYHLRQILVFLDAMVMNKPEFMGGVIQNKVDPQTGEVIDQGTLDHLTGQLTAFGEFIQRVKI | 4 | –
5 | ChrR41 (Glu146Thr) (enzyme, Escherichia coli, ChrR, Escherichia coli, with Glu146Thr; PDB 3SVL is the wild-type parent; source: E. coli BL21 (DE3), pET28a, purified (His-Trap nickel column, tag removed, gel filtration)) EKLQVVTLLGSLRKGSFNGMVARTLPKIAPASMEVNALPSIADIPLYDADVQQEEGFPATVEALAEQIRQADGVVIVTPEYNYSVPGGLKNAIDWLSRLPDQPLAGKPVLIQTSSMGVIGGARCQYHLRQILVFLDAMVMNKPTFMGGVIQNKVDPQTGEVIDQGTLDHLTGQLTAFGEFIQRVKI | 4 | –
6 | ChrR21 (Tyr128Asn) (enzyme, Escherichia coli, ChrR, Escherichia coli, with Tyr128Asn; PDB 3SVL is the wild-type parent; source: E. coli BL21 (DE3), pET28a, purified (His-Trap nickel column, tag removed, gel filtration)) EKLQVVTLLGSLRKGSFNGMVARTLPKIAPASMEVNALPSIADIPLYDADVQQEEGFPATVEALAEQIRQADGVVIVTPEYNYSVPGGLKNAIDWLSRLPDQPLAGKPVLIQTSSMGVIGGARCQNHLRQILVFLDAMVMNKPEFMGGVIQNKVDPQTGEVIDQGTLDHLTGQLTAFGEFIQRVKI | 4 | –
